Test results published in paper PMC7293015 (Nucleic Acids Research, 2020).
Positions count from the first letter of the chain named. Names and notes keep the numbering of the source.

T1: StBax1 mutant R86A/R87A (Sulfolobus tokodaii, UniProt Q970I1 1-481, R86A | R87A)
T1 construct: Expression and purification of the mutants are not described
T1 sequence: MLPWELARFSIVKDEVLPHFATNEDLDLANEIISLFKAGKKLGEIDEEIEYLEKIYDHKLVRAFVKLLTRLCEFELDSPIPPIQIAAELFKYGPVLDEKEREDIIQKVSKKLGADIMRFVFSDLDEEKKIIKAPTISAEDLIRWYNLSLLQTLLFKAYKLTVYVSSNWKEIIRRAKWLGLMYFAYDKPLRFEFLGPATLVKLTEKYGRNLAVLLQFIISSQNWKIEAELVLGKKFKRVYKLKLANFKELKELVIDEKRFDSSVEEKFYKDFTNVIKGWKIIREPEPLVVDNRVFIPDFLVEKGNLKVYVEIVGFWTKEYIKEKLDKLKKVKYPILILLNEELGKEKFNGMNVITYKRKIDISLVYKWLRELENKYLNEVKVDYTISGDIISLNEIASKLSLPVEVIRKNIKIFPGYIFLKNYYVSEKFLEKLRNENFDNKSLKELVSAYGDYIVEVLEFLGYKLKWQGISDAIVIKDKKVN

T2: AfBax1 mutant D133A/E135A (Archaeoglobus fulgidus, UniProt O29890 1-468, D133A | E135A)
T2 construct: Expression and purification of the mutants are not described; also called AfBax1 with substitutions D133A/E135A
T2 sequence: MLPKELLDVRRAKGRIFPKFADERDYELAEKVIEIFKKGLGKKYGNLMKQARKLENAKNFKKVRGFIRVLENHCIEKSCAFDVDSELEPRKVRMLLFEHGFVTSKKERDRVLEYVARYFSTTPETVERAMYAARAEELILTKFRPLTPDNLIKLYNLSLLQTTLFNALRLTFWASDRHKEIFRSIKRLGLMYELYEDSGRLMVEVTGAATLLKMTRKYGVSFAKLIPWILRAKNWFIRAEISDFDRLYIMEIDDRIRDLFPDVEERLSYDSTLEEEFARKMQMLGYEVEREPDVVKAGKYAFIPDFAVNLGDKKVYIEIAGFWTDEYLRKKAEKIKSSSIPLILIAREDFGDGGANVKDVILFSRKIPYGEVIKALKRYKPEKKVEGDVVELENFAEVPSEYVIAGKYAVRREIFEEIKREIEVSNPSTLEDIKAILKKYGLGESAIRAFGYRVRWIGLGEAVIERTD

B1: His6-AfBax1 (Archaeoglobus fulgidus Bax1) (enzyme)
chain: T2 sequence with A133D, A135E
notes: residues 1-467 are seen in the crystal of the untagged form; Used in ITC as His6-AfBax1; also called wild type AfBax1; source: E. coli Rosetta, from pET-28b, purified in the same way as His6-AfXPB
B2: His6-AfXPB C-terminal half (residues 234-452) (domain or fragment, Archaeoglobus fulgidus, UniProt O29889 234-452, looked up)
chain: LAGKHLAKYTIKRIFVPLAEDERVEYEKREKVYKQFLRARGITLRRAEDFNKIVMASGYDERAYEALRAWEEARRIAFNSKNKIRKLREILERHRKDKIIIFTRHNELVYRISKVFLIPAITHRTSREEREEILEGFRTGRFRAIVSSQVLDEGIDVPDANVGVIMSGSGSAREYIQRLGRILRPSKGKKEAVLYELISRGTGEVNTARRRKNAAKGAA
notes: also called AfXPB-CTD; His6-AfXPB-CTD; source: purified
B3: His6-StBax1 (Sulfolobus tokodaii Bax1) (enzyme, UniProt Q970I1 1-481, looked up)
chain: T1 sequence with A86R, A87R
notes: Homodimer when alone in solution (size-exclusion chromatography); one copy in the heterodimer with StXPB; source: E. coli Rosetta (DE3) pLysS, from pET15b, purified (heat step, ammonium sulfate, HisTrap, gel filtration)
B4: StXPB mutant E357A/E360A (enzyme, Sulfolobus tokodaii)
chain: MVYLRYFKGLILSDAYAPGLKWSDELKAYSALAFKYRDVRKYFLEKEIEVEENVIDSLPFPLIKDKIELRDYQAEAVKAWLKEKRGIIVLPTGAGKTQVALKIVSIMKVATLIVVPTIDLITQWKERINKYLDFDPGIIGGGEDSLKGITVITYDSAYTRAEELGNKFPLLIFDEVHHLPSEGYSIMAQLFASPYRLGLTATPERDDGKHELYPILVGPIVYRKSVEELAGKYIAKYKIKKLYVSLTNEEKKRYDGLRKKLKDFLSSRGLKLQNLDDFHRLVKLAAKDKEAREALLAWHESLNIAVNSQSKIEKLREILQEYKNEKIIVFTRDTQMAYRISKTFLIPVVTYKTDKDAREAILQKFRDGEYRVIVASTVFDEGVDVPDATLAIVMGGYGTKRQFLQRLGRILRKKDKEALLIEIVTKGTADYRLSRRRRE
notes: Expression and purification of the mutants are not described
B5: His6-AfXPB (Archaeoglobus fulgidus XPB) (enzyme, UniProt O29889 1-452, looked up)
chain: MQMIAEIYYERGTIVVKGDAHVPHAKFDSRSGTYRALAFRYRDIIEYFESNGIEFVDNAADPIPTPYFDAEISLRDYQEKALERWLVDKRGCIVLPTGSGKTHVAMAAINELSTPTLIVVPTLALAEQWKERLGIFGEEYVGEFSGRIKELKPLTVSTYDSAYVNAEKLGNRFMLLIFDEVHHLPAESYVQIAQMSIAPFRLGLTATFEREDGRHEILKEVVGGKVFELFPDSLAGKHLAKYTIKRIFVPLAEDERVEYEKREKVYKQFLRARGITLRRAEDFNKIVMASGYDERAYEALRAWEEARRIAFNSKNKIRKLREILERHRKDKIIIFTRHNELVYRISKVFLIPAITHRTSREEREEILEGFRTGRFRAIVSSQVLDEGIDVPDANVGVIMSGSGSAREYIQRLGRILRPSKGKKEAVLYELISRGTGEVNTARRRKNAAKGAA
notes: residues 1-445 and 17 residues of the N-terminal His6 tag are seen in the crystal; also called full length AfXPB; source: E. coli Rosetta (DE3) pLysS, purified (heat step, HisTrap, HiTrap SP, Sephacryl S-200); not shown: His6, N-terminal, kept

Experiments:
[1] = molecular target: StBax1 mutant L89A/F90A/P94S/V95S (Sulfolobus tokodaii) (UniProt Q970I1); experiment: ITC; His6-StXPB (30 uM) injected into His6-StBax1 (3 uM); 16 injections of 2.36 ul; 40 C; 10 mM Tris-Cl pH 7.5, 200 mM NaCl, 5% glycerol, 0.01% sodium azide; single binding site fit; similar procedures for mutants
[2] = molecular target: the molecule itself; experiment: SEC; S200 size-exclusion chromatography of the proteins alone and mixed; calibrated with Conalbumin (75 kDa), Ovalbumin (44 kDa) and Lactalbumin (14 kDa)
[3] = molecular target: B1; experiment: ITC; His6-AfXPB (139.5 uM) or His6-AfXPB-CTD (202 uM) injected into His6-AfBax1 (13.3 uM); 16 injections of 2.36 ul; 40 C; 10 mM Tris-Cl pH 7.5, 500 mM NaCl, 5% glycerol, 0.01% sodium azide; single binding site fit; similar procedures for mutants; details: both partners purified
StBax1 mutant R86A/R87A = molecular target: T1, StBax1 mutant R86A/R87A; experiment: ITC; His6-StXPB (30 uM) injected into His6-StBax1 (3 uM); 16 injections of 2.36 ul; 40 C; 10 mM Tris-Cl pH 7.5, 200 mM NaCl, 5% glycerol, 0.01% sodium azide; single binding site fit; similar procedures for mutants; details: both partners purified
[4] = molecular target: T2, AfBax1 mutant D133A/E135A; experiment: ITC; His6-AfXPB (139.5 uM) or His6-AfXPB-CTD (202 uM) injected into His6-AfBax1 (13.3 uM); 16 injections of 2.36 ul; 40 C; 10 mM Tris-Cl pH 7.5, 500 mM NaCl, 5% glycerol, 0.01% sodium azide; single binding site fit; similar procedures for mutants; details: both partners purified

| Kd [3] [nM] | stoichiometry N [3] | Molecule | stoichiometry N [2] | also measured |
| --- | --- | --- | --- | --- |
|  |  | His6-StXPB (Sulfolobus tokodaii XPB, XPBII) (from UniProt Q970I2 1-439) (enzyme) |  | stoichiometry N [1]: 1 |
|  |  | B1 | 2 |  |
| 0.5 | 1 | B2 |  |  |
|  |  | B3 | 2 |  |
|  |  | B4 |  | Kd (StBax1 mutant R86A/R87A): 64.9 nM; stoichiometry N (StBax1 mutant R86A/R87A): 1 |
| 15.2 | 1 | B5 |  | Kd [4]: 157 nM; stoichiometry N [4]: 1 |
